Source: article PMC5389812, “Rv3634c from Mycobacterium tuberculosis H37Rv encodes an enzyme with UDP-Gal/Glc and UDP-GalNAc 4-epimerase activities” (PLoS ONE, 2017)

Molecular target: the molecule itself
Assay: SEC; Superdex 200 16/600 GL column, FPLC buffer (20 mM Tris pH 8.0, 100 mM NaCl); calibrated with conalbumin, ovalbumin, carbonic anhydrase, ribonuclease A and aprotinin; molecular weight from Kav

B1: His-tagged Rv3634c (H3634), wild type, UDP-Gal/Glc and UDP-GalNAc 4-epimerase from Mycobacterium tuberculosis H37Rv (enzyme)
chain: MRALVTGAAGFIGSTLVDRLLADGHSVVGLDNFATGRATNLEHLADNSAHVFVEADIVTADLHAILEQHRPEVVFHLAAQIDVRRSVADPQFDAAVNVIGTVRLAEAARQTGVRKIVHTSSGGSIYGTPPEYPTPETAPTDPASPYAAGKVAGEIYLNTFRHLYGLDCSHIAPANVYGPRQDPHGEAGVVAIFAQALLSGKPTRVFGDGTNTRDYVFVDDVVDAFVRVSADVGGGLRFNIGTGKETSDRQLHSAVAAAVGGPDDPEFHPPRLGDLKRSCLDIGLAERVLGWRPQIELADGVRRTVEYFRHKHTD
notes: the protein is called H3634 (His-tagged Rv3634c) in the size exclusion experiment; also called WT; WT H3634; not shown: His6, N-terminal, kept
Which “stoichiometry N” value does the source give for B1 here?
Its value is 2.
